In data set [1] the target is T1, SpCas9 (Streptococcus pyogenes, UniProt Q99ZW2 Q99ZW2:1-1368). As to the kind of experiment: EMSA; DX tile band shifted toward well on annealing with Cas9; sgRNA maintained after RNase H. The settings on record: sgRNA fused to central RNA staple of DX tile. As for the experimental part: Dx-tiles were made either containing the Gint or broccoli aptamers. To prepare the folded DX-tiles, the components (e.g., DNA scaffold, two flanking/end staples encoding either the Gint (i.e., Gint4.T and Gint21.T) or broccoli aptamers, and central staple) were mixed in equimolar concentrations and allowed to anneal over 2 hours from 95 C to 25 C. The resulting structures were visualized by gel electrophoresis.
T1 sequence (Q99ZW2 whole entry, the tested form may be a part, one chain of several): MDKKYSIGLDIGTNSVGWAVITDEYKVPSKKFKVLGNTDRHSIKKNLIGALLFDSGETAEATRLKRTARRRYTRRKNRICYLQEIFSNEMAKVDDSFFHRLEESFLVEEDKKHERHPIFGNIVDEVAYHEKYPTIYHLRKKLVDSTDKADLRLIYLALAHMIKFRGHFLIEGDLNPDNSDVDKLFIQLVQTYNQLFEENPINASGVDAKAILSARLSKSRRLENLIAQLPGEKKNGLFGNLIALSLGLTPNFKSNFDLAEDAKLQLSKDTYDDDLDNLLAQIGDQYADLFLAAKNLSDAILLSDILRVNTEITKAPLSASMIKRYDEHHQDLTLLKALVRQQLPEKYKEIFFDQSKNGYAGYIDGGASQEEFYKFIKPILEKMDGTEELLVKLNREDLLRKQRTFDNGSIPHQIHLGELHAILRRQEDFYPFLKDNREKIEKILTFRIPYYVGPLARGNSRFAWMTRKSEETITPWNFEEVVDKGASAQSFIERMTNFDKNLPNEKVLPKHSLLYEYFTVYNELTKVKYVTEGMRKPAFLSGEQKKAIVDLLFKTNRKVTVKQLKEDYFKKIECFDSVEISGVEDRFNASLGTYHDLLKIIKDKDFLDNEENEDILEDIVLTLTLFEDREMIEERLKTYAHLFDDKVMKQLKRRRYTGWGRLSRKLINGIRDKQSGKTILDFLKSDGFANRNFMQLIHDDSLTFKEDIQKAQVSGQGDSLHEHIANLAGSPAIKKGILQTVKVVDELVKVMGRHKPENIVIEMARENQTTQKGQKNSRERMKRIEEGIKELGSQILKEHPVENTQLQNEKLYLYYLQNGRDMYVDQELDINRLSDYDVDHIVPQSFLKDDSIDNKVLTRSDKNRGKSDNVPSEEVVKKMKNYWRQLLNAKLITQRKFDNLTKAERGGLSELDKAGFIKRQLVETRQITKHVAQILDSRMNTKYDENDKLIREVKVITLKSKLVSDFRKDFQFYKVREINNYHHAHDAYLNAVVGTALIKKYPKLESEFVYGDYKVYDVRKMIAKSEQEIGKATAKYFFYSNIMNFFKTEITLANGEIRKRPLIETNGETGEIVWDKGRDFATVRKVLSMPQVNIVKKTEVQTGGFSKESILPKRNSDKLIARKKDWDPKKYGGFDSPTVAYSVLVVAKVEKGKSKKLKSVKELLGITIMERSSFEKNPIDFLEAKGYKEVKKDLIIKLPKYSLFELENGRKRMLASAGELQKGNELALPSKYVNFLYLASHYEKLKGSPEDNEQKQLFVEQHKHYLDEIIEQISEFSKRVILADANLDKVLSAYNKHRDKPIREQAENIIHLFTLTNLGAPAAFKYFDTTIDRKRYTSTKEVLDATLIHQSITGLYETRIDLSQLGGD
Several bands were originally visualized, showing impurities in the production. […] Given that staple 2 spans across the region targeted by the sgRNA and could therefore contribute to misfolding, in a repeat experiment, staple 2 was left out of the folding mixture. This yielded higher folding. Upon addition and annealing with Cas9, the DX tile band was closer to the well on the gel. Addition of RNase H both with and without Cas9 released the HDR template.
In general terms: Mobility shift assays separate free from complexed probe on a gel.

Data set [2] deals with T1, SpCas9. Description: EMSA; 5x molar Cas9 shifted nanoparticle band into the well. The settings on record: sgRNA whose 3' extension hybridises to DNA scaffold. As for the experimental part: The DNA was amplified and purified by Qiagen, and transcribed using the NEB T7 HiScribe kit modified for short RNA production, and purified by PAGE purification. It was then folded with 50 mM HEPES-KOH pH 7.5, 300 mM KCl following the RNA/DNA hybrid folding protocol. The excess staples were purified away from the PB84 with a 100 kDa MWCO filter. A 2% high resolution agarose gel with 1×TAE buffer and 4 mM Mg-acetate was run at 4 C in the cold room at 65V for 180 minutes.
It was observed that the nanoparticle with the RNA staple presented a band at the same size as the all-DNA staple nanoparticle.

B1: EGFP sgRNA-staple 3, in DX tile with HDR DNA scaffold (ssRNA)
RNA: GCUGAAGCACUGCACGCCGUGUUUUAGAGCUAUGCUGUUGAAAAACAGCAUAGCAAGUUAAAAUAAGGCUAGUCCGUUAUCAACUUGAAAAAGUGGCACCGAGUCGGUGCUUUUUCUGGCCCACCCUCAGCCGCUACCCCGACCACAUGAGCCCGUGCC
Take B1: the binding result in the data set with SpCas9 [1] is given as “binds”.

B2: PCSK9 sgRNA with 3' staple extension (PB84), folded in DNA pentagonal bipyramid (ssRNA)
RNA: GGCUGAUGAGGCCGCACAUGGUUUUAGAGCUAUGCUGUUCUUCGGAACAGCAUAGCAAGUUAAAAUAAGGCUAGUCCGUUAUCAACUUGAAAAAGUGGCACCGAGUCGGUGCAAAAAUCACCCAGAAACGCUGGUGAAAGUGUAUGAGUAUUCAACAUUUCCGUGUCGCCCUUGUUUUUGCUGCAG
With B2, the binding result with SpCas9 [2] was “binds”.

(Values after patent US20210317479, “NUCLEIC ACID ASSEMBLIES FOR USE IN TARGETED DELIVERY” (The Broad Institute, Inc., published 2021).)
